# Test results taken from patent US12187785B2, “Recombinant protein and fragments thereof, method for producing said recombinant protein, synthetic gene and use of sculptin or recombinant protein for preparing a medicament or pharmaceutical composition for the prophylaxis and/or treatment of thromboembolic diseases or as a direct and specific …” (priority 2017, dated 2025).
# T1: trypsin (Bos taurus, UniProt P00760)
# T1 construct: gene PRSS1
# T1 sequence (P00760 24-246): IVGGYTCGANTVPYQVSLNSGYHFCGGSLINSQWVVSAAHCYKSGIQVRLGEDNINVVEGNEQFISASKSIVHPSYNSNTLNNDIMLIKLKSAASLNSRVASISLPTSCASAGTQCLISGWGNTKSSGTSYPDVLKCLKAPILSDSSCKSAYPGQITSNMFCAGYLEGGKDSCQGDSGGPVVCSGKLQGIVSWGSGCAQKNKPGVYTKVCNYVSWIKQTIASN
# B1: GKPQGHPHDALEARSDAVHTAVPKMPKGGHGGFEPIPIDYDERALEARSDAVHTAVPKMPKGGLGGFEPIPIDYDERALEARSDAVHTAVPKMPKGGHGGFEPIPIDYDERALEARSDAVHTAVPKMPKGGHGGFEPIPIDYDERALHALEHHHHHH (protein)
# chain: GKPQGHPHDALEARSDAVHTAVPKMPKGGHGGFEPIPIDYDERALEARSDAVHTAVPKMPKGGLGGFEPIPIDYDERALEARSDAVHTAVPKMPKGGHGGFEPIPIDYDERALEARSDAVHTAVPKMPKGGHGGFEPIPIDYDERALHALEHHHHHH
# modifications: Sculptin recombinat protein
# notes: recombinant His-tagged protein modified from tick sculptin, expressed in E. coli
# Tests used:
# Assay type in all cases: biochemical
# factor Xa = molecular target: T2, factor Xa (Homo sapiens, UniProt P00742); test: Serine protease inhibition test, factor Xa (chromogenic substrate); details: recombinant protein 1, 100, 200 nM; protease 100 pM; 6 h at 37° C.
# T2 construct: Serine protease (100 pM; thrombin, plasmin, trypsin or factor Xa) was incubated with recombinant protein; For factor Xa activity, buffer contained phosphatidylserine and phosphatidylcholine 50 μM
# Description: (§1) (A) Inhibition of serine proteases through recombinant protein. Serine protease (100 pM; thrombin, plasmin, trypsin or factor Xa) was incubated with recombinant protein (1, 100 and 200 nM) in phosphate buffer 50 mM containing NaCl 150 mM and 0.1% of PEG 6000, pH 7.4 for 6 h at 37° C. Following addition of chromogenic substrate corresponding to reaction mixture, hydrolysis thereof was monitored at 405 nm. For factor Xa activity, buffer contained phosphatidylserine and phosphatidylcholine 50 μM. […] (B) Typical curves for hydrolysis of chromogenic substrate S-2238 (15 μM) by thrombin 0.1 nM in absence (trace a) or presence of recombinant protein (trace b, 15 pM; trace c, 30 pM; trace d, 60 pM and trace e, 100 pM) in phosphate buffer 50 mM containing NaCl 150 mM and 0.1% of PEG 6000, pH 7.4 at 37° C. (C) Residual activity of thrombin in presence of increasing concentration of recombinant protein. (D) Dose-response curves for thrombin inhibition by recombinant protein. Percentage of thrombin inhibition was plotted versus the concentration record of recombinant protein. Experimental condition of (C) and (D) is the same as in (B).
# (§2) The first performed experiment was the test of serine proteases inhibition through recombinant protein. […] Hydrolysis of a chromogenic substrate through serine proteases in the presence and absence of recombinant protein was monitored in a spectrophotometer way. […]
# trypsin = molecular target: T1, trypsin; test: Serine protease inhibition test, trypsin (chromogenic substrate); details: recombinant protein 1, 100, 200 nM; protease 100 pM; 6 h at 37° C.
# Description: as §1, §2
# isolated human plasma = test: Prothrombin time (PT) in isolated human plasma; details: plasma of healthy human volunteers, incubation 3 min. at 37° C.
# Description: Plasma was obtained from blood of healthy human volunteer and incubated with different concentrations of recombinant protein. APTT, PT and TT were determined like experimental procedure. (A) Activated partial thromboplastin time (B) prothrombin time and (C) thrombin time. Ctrl is related to plasma and Sal is related to plasma plus saline.
# Finally, PT, aPTT and TT were assessed in isolated plasma of healthy human volunteers following incubation with recombinant protein for 3 min. at 37° C. […] Maximum test reading for aPTT was achieved following 12 nM, while for PT that was achieved following 6 nM of recombinant protein (FIGS. 11A and 11B).
# T2 sequence (P00742 235-488 limits assumed): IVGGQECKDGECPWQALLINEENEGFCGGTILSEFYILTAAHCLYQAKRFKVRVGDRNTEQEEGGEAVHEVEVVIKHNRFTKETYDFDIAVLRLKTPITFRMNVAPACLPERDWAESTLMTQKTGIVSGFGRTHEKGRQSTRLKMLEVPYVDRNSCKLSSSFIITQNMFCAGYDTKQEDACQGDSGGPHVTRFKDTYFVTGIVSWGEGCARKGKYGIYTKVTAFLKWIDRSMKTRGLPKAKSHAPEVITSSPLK
# T2 sequence (P00742 41-179 limits assumed): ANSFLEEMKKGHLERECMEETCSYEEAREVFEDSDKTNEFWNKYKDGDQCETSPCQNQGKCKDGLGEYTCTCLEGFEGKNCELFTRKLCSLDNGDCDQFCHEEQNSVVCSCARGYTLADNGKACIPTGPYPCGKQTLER
molecule,measurement,setting,value
B1,inhibition of factor Xa,factor Xa,did not inhibit
same,inhibition of trypsin,trypsin,did not inhibit
same,PT,isolated human plasma,prolonged by recombinant protein in concentration-dependent way
same,concentration at which maximum test reading for PT was achieved,isolated human plasma,6 nM
